Where no end group is shown, it is not given here.
Tests used:
[1] = biological target: lissamine-YQSYY; assay: fluorescence polarisation; fluorescence anisotropy; AtPEX5C or variant serially diluted (from a 40 µM solution) against 100 nM lissamine-labelled peptide tracer; 20 mM HEPES, 150 mM NaCl, pH 7.5; gelatine-blocked 384-well plates; 25 °C, 20 min; fitted to a 1:1 binding model
[2] = biological target: T1, wild-type AtPEX5C (Arabidopsis thaliana, UniProt Q9FMA3); assay: Pull down of binding peptides (Co-NTA, LC-MS), wild-type AtPEX5C; conditions: […] protein, 500 nM each peptide, pH 8.0, 4 °C, 1 h, semi-quantitative
T1 construct: made in house; host or cells: E. coli BL21-Gold (DE3)
T1 sequence (Q9FMA3 340-728): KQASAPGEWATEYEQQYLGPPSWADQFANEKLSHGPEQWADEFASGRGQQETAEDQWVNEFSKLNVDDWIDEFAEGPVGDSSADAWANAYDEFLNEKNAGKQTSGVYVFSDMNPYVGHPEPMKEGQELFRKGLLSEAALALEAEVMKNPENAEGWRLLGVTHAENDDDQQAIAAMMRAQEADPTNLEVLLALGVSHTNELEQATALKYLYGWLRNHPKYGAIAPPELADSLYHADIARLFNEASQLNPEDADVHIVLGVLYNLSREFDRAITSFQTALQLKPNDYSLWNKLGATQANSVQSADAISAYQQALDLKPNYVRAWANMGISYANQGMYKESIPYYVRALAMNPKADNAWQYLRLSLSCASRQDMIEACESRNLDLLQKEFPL
From the text: (§1) The chemical space that can be covered by all possible variants of the receptor and signal sequence is vast (e.g., combined randomization of the two C-terminal PTS1 residues and just six residues within AtPEX5C would result in a library size of 2.6 × 10^10 variants of peptide and protein), which makes the development of an assay for a PEX5*-PTS1* pair problematic. We reduced the dimensionality of this search by designing modifications to the PEX5 component and rapidly surveying which peptide sequences could be bound by each mutated receptor (Fig. 1a). Site-directed variants of a His6-tagged A. thaliana PEX5 PTS1-binding domain (residues 340–728, AtPEX5C)[16], selected by analysis of known crystal structures, were expressed in Escherichia coli. The purified proteins were incubated with a library of pentapeptides, representing known PTS1 and putative PTS1* sequences. After capture of the receptor-peptide complexes on cobalt affinity resin, the bound peptides were eluted and identified by liquid chromatography-mass spectrometry (LC-MS) analysis. […]
(§2) Each peptide sub-library was analyzed using the LC-MS method listed above and an identical chromatographic run in which the mass spectrometer provided automated MS/MS data, using collisional induced fragmentation in the quadrupole. […]

[3] = biological target: T2, AtPEX5C D505H (Arabidopsis thaliana, UniProt Q9FMA3, D505H); assay: Pull down of binding peptides (Co-NTA, LC-MS), AtPEX5C D505H; conditions: […] protein, 500 nM each peptide, pH 8.0, 4 °C, 1 h, semi-quantitative
T2 construct: made in house; host or cells: E. coli BL21-Gold (DE3)
T2 sequence (Q9FMA3 340-728 D505H): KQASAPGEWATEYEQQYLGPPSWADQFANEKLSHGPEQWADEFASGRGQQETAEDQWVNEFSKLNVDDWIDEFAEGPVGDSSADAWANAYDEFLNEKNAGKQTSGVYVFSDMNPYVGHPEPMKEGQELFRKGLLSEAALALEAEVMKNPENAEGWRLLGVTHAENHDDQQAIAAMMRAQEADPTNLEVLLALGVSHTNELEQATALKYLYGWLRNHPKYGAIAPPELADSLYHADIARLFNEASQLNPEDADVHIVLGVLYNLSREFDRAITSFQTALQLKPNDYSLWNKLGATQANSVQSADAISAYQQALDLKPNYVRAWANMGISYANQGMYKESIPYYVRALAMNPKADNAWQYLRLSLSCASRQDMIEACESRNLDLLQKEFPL
From the text: as §1, §2

[4] = biological target: T3, AtPEX5C N601A (Arabidopsis thaliana, UniProt Q9FMA3, N601A); assay: Pull down of binding peptides (Co-NTA, LC-MS), AtPEX5C N601A; conditions: […] protein, 500 nM each peptide, pH 8.0, 4 °C, 1 h, semi-quantitative
T3 construct: made in house; host or cells: E. coli BL21-Gold (DE3)
T3 sequence (Q9FMA3 340-728 N601A): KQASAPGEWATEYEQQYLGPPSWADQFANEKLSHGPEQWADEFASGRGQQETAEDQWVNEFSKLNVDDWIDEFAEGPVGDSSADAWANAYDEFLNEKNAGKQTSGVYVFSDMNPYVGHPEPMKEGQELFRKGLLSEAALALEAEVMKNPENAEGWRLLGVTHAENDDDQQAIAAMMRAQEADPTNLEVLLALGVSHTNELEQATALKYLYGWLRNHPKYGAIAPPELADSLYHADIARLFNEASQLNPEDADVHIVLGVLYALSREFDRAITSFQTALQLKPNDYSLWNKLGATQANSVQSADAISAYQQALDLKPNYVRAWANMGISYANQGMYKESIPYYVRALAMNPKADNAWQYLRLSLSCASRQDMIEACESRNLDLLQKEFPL
From the text: as §1, §2

[5] = biological target: endogenous PhypaPEX5 (Physcomitrella patens (endogenous in P. patens cells))
[6] = biological target: T4, AtPEX5C D505H (Arabidopsis thaliana, UniProt Q9FMA3 340-728, D505H); assay: fluorescence polarisation; fluorescence anisotropy; AtPEX5C or variant serially diluted (from a 40 µM solution) against 100 nM lissamine-labelled peptide tracer; 20 mM HEPES, 150 mM NaCl, pH 7.5; gelatine-blocked 384-well plates; 25 °C, 20 min; fitted to a 1:1 binding model; conditions: both partners purified
T4 construct: Made by site-directed mutagenesis of His6-AtPEX5 (340-728) in pET-28b; also called D505H variant of AtPEX5C; source: E. coli BL21-Gold (DE3), purified (Co-NTA)
T4 sequence (looked up): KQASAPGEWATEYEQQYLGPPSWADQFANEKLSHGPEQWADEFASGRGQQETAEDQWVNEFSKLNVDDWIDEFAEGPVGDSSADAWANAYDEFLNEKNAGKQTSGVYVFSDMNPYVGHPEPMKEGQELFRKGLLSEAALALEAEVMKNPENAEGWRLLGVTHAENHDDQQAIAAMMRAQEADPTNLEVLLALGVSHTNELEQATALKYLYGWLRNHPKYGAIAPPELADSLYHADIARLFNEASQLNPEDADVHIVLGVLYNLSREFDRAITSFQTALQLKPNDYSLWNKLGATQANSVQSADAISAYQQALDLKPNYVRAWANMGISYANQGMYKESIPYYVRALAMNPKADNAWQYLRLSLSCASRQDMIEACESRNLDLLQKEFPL

[7] = biological target: T5, AtPEX5C D505H-D507T-N601A (Arabidopsis thaliana, UniProt Q9FMA3 340-728, D505H | D507T | N601A); assay: as above; conditions: both partners purified
T5 construct: Made by site-directed mutagenesis of His6-AtPEX5 (340-728) in pET-28b; source: E. coli BL21-Gold (DE3), purified (Co-NTA)
T5 sequence (looked up): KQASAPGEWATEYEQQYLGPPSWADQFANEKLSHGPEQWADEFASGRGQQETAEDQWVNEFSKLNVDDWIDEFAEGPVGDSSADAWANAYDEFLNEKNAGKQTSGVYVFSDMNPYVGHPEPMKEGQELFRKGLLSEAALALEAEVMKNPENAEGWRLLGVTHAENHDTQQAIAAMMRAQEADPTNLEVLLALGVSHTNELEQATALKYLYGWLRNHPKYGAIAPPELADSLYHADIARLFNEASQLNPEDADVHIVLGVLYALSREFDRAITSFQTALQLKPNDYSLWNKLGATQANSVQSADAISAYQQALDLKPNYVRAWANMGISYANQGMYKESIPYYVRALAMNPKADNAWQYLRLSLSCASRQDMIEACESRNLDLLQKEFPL

[8] = biological target: T6, AtPEX5C N601A (Arabidopsis thaliana, UniProt Q9FMA3 340-728, N601A); assay: as above; conditions: both partners purified
T6 construct: Made by site-directed mutagenesis of His6-AtPEX5 (340-728) in pET-28b; also called N601A variant; source: E. coli BL21-Gold (DE3), purified (Co-NTA)
T6 sequence (looked up): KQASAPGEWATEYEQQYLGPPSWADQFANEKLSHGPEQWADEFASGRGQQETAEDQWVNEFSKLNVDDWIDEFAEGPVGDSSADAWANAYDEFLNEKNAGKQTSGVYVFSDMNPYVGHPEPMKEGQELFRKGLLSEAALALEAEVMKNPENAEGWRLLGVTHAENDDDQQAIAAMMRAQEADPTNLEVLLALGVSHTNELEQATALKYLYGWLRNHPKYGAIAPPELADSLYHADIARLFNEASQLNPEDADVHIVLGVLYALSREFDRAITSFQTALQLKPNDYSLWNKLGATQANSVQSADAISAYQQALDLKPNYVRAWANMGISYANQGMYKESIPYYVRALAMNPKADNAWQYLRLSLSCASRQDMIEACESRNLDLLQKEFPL

[9] = biological target: T7, AtPEX5C D505H-N601A (Arabidopsis thaliana, UniProt Q9FMA3 340-728, D505H | N601A); assay: as above; conditions: both partners purified
T7 construct: Made by site-directed mutagenesis of His6-AtPEX5 (340-728) in pET-28b; source: E. coli BL21-Gold (DE3), purified (Co-NTA)
T7 sequence (looked up): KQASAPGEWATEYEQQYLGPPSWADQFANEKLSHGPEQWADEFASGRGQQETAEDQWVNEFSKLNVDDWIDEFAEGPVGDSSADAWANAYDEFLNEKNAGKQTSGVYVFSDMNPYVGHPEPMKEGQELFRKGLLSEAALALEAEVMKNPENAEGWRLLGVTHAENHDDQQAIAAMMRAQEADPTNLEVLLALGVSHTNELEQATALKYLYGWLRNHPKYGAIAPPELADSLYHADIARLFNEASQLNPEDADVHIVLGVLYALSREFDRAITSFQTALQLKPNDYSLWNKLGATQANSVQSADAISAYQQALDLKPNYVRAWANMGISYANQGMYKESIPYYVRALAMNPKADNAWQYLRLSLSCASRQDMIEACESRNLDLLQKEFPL

[10] = biological target: T8, His6-tagged A. thaliana PEX5 PTS1-binding domain (residues 340-728), wild type (Arabidopsis thaliana, UniProt Q9FMA3 340-728); assay: as above; conditions: both partners purified
T8 construct: Written 'His6-AtPEX5 (340-728)', in pET-28b; also called AtPEX5C; wild-type AtPEX5C; source: E. coli BL21-Gold (DE3), purified (Co-NTA)
T8 sequence (looked up): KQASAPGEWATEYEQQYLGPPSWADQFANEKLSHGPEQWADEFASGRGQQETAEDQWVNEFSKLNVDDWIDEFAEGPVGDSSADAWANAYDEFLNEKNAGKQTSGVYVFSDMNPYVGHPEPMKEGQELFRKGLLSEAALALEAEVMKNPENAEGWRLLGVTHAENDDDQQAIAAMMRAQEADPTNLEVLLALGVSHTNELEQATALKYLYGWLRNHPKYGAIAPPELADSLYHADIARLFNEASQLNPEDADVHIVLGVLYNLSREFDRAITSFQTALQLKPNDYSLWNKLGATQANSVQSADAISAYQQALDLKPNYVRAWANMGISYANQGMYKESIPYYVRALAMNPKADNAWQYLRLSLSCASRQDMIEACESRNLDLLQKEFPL

“His6-tagged A. thaliana PEX5 PTS1-binding domain (residues 340-728), wild type (from UniProt Q9FMA3 340-728) (domain or fragment)” showed a Kd [1] of 2700 nM.

“dansyl-YQSYY [member of dansyl-YQSXX pentapeptide library]” was tested, and the “pulled down from library” value [2] was “not pulled down”, the “pulled down from library” value [3] was “bound” and the “pulled down from library” value [4] was “bound”.

For “dansyl-YQSFY [member of dansyl-YQSXX pentapeptide library]”, the “pulled down from library” value [2] was “not pulled down”, the “pulled down from library” value [3] was “bound” and the “pulled down from library” value [4] was “bound”.

In the case of RFP-PTS1, the peroxisomal import: localisation score (1-5) of RFP-PTS1 in P. patens cells expressing PEX5* without GFP-PTS1* (score (scale 1-5)) [5] is reported as 4.32.

B1: lissamine-YQSKL (peptide)
peptide: {lissamine rhodamine B sulfonyl}-YQSKL
notes: model PTS1 pentapeptide; also called lissamine-labelled YQSKL; model PTS1 peptide; source: synthetic peptide (Fmoc solid-phase synthesis, reverse phase HPLC)
In the case of B1, the Kd [6] is reported as 30 nM, the Kd [7] is reported as 97 nM and the Kd [8] is reported as 22 nM. It also gave a Kd [9] of 108 nM and a Kd [10] of 1.1 nM.

B2: lissamine-YQSYY (peptide)
peptide: {lissamine rhodamine B sulfonyl}-YQSYY
notes: pentapeptide found in the YQSXX library screen; also called lissamine-labelled YQSYY; source: synthetic peptide (Fmoc solid-phase synthesis, reverse phase HPLC)
For B2, the Kd [6] was 960 nM, the Kd [7] was 110 nM and the Kd [8] was 2300 nM. It also gave a Kd [9] of 603 nM.

— paper PMC5587766, “Towards designer organelles by subverting the peroxisomal import pathway” (Nature Communications, 2017)
